Experimental data as given in patent publication US20150307616A1 (APEXIGEN, published 2015).
Residue numbers refer to the chain shown, from its start. Blank lines part the entries; values can stand above or below the binder they belong to.

Tests used:
[1] = target: T1, human CD40 on the cell surface (human, UniProt P25942 21-277); assay: cell-based or functional assay
[2] = target: T1, human CD40 on the cell surface; assay: cell-based or functional assay; remark: listed apart in the source
[3] = target: T1, human CD40 on the cell surface; assay: FACS on Ramos cells, 30 minutes at 4 C, Alexa 488 goat anti-human IgG
Procedure: (§1) In order to assess the target mediated-internalization of APX005 for evaluating its impact on ADCC activity, Ramos cells were incubated with APX005 for 4 h at 37° C., a temperature permissive for internalization, or at 4° C. for 30 minutes, a temperature at which internalization is minimized. Cells were washed with staining buffer, followed by incubation with Alexa 488 labeled goat anti-human IgG for an additional 30 minutes at 4° C. FACS analysis was performed to examine the level of APX005 on the cell surface.

[4] = target: T2, mouse CD40 on mouse A20 cells (mouse, UniProt P27512 20-289); assay: FACS on mouse A20 cells, goat anti-human IgG (H+L)-R-PE
T2 construct: whole, on cells; also called A20 cell line which expresses mouse CD40
Procedure: Cross-reactivity of APX005 with mouse CD40 was further determined by FACS binding to a mouse A20 cell line which expresses mouse CD40. An aliquot of 0.5×10⁶ A20 cells was added to 96 well plates and incubated with 100 μl diluted rat anti-mouse CD40 antibody conjugated with PE, APX005 or IgG1 control antibodies. After washing, 100 μl Goat-anti human IgG (H+L) conjugated with R-PE (Southern Biotech CAT#2040-09) were added at 1:200 dilution in PBS to the sample and incubated for detection of APX005 and control human IgG1. A rat anti-mouse CD40 antibody conjugated with PE was used as positive control. Samples were re-suspended with 0.5 ml PBS and analyzed by FACS.

[5] = target: T3, human CD40 (human, UniProt P25942 21-193, limits assumed); assay: method not stated
T3 construct: also called immobilized human CD40

[6] = target: T1, human CD40 on the cell surface; assay: FACS on Ramos cells, 4 h at 37 C, Alexa 488 goat anti-human IgG
Procedure: as §1

[7] = target: T4, mouse CD40 (coated protein) (mouse, UniProt P27512 20-193, limits assumed); assay: direct ELISA by the text (1 ug/ml CD40 coated, goat anti-human IgG-HRP); the axis of the sheet is labelled MFI
T4 construct: Coated at 1 µg/ml on ELISA plates
Procedure: Cross-reactivity was assessed by direct ELISA. A total of 1 μg/ml of human CD40, monkey CD40 or mouse CD40 was coated on ELISA plates followed by incubation with […] of APX005 or control IgG1. Antibodies bound to CD40 were detected using goat anti-human IgG conjugated with HRP. APX005 clearly crossreacts with monkey CD40 but not mouse CD40. (FIG. 11A)

T1 sequence (P25942 21-277): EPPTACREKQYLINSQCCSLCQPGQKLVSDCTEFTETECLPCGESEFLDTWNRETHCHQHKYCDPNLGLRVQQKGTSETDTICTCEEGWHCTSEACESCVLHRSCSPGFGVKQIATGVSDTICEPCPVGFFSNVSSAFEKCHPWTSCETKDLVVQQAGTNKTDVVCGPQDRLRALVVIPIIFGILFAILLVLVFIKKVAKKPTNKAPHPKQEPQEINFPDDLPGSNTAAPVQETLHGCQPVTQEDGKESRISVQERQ
T2 sequence (P27512 20-289): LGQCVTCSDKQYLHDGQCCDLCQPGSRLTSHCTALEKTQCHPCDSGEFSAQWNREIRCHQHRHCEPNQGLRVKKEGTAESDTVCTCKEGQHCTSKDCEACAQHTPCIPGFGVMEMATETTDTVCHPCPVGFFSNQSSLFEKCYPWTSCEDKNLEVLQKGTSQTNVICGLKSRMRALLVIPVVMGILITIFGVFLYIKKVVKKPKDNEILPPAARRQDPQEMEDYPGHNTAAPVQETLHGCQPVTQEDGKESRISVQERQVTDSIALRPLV
T3 sequence (P25942 21-193 limits assumed): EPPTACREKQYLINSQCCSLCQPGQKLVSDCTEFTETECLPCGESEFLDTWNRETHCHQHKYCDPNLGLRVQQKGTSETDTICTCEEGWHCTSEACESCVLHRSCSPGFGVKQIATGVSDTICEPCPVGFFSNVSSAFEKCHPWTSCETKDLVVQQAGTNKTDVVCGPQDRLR
T4 sequence (P27512 20-193 limits assumed): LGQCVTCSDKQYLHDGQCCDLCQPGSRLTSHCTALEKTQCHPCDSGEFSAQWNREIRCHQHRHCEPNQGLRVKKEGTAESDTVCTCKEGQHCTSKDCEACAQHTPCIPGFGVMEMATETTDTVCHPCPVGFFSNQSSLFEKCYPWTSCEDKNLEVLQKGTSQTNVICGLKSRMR

Pro-apoptosis activity (IC50) [2]: 0.02 µg/mL
B2: c19-21 chimeric anti-CD40 antibody (antibody, V domains shown)
VH: QSLEESGGRLVTPGTPLTLTCTVSGFDLSSNAMNWVRQAPGKGLEWIGYITISGSAGYASWAKGRFTISKTSTTVDLKISSPTTEDTATYFCARGYNTMAIWGPGTLVTVSS
VL: AQVLTQTPSPVSAPVGGTVTINCQSSQNVLINNRLAWYQQKPGQPPKLLIYDASKLASGVPSRFKGSGSGTQFTLTISGVQCDDAATYYCQAGYSSGDGNAFGGGTEVVVK
ADCC (% cytotoxicity of Ramos cell at 1 µg/ml) [2]: 26%

CD83 expression on human monocyte-derived DC (DC maturation assay) [1]: > 50%
B4: R-24 rabbit anti-CD40 antibody (antibody, V domains shown)
VH: QSLEESGGDLVKPGASLTLTCTASGFSFSRGYYICWVRQAPGKGLEWIACIGAGSGGTYFASWAKGRFSISRTSSTTVTLQMTSLTAADTATYFCAREDAGNDDYGYARNLWGPGTLVTVSS
VL: DIVMTQTPASVSAAVGGTVTINCQASESAYTLLAWYQQKPGQPPKLLIYGASILESGVPSRFKGSGSGTDFTLTISDLECADAATYYCQSHYFGSSSGYANTFGGGTEVVVK

Pro-apoptosis activity (IC50) [2]: 0.45 µg/mL
B5: cR-8 chimeric anti-CD40 antibody (antibody, V domains shown)
VH: QSLEESGGDLVKPGASLTLTCTASGFSFSSTYVCWVRQAPGKGLEWIACIYTGDGTNYSASWAKGRFTISKPSSTTVTLQMTSLTPADTATYFCARPDITYGFAINFWGPGTLVTVSS
VL: DIVMTQTPSSASEPVGGTVTIKCQASQSISSRLAWYQQKPGQPPKLLIYRASTLASGVPSRFKGSGSGTEFTLTISDLECADAATYYCQCTGYGISWPIGGGTEVVVK
ADCC (% cytotoxicity of Ramos cell at 1 µg/ml) [2]: 33%

Pro-apoptosis activity (IC50) [2]: 0.9 µg/mL
B7: cR-33 chimeric anti-CD40 antibody (antibody, V domains shown)
VH: QSLEESGGDLVKPGASLTLTCTASGFSFSSSYWICWVRQAPGKGLEWIACINTGSSVTTVYARWAKGRFTISKASSTTVTLQMTSLTAADTATYFCARYIIPGYNFNLWGPGTLVTVSS
VL: AYDMTQTPASVEVAVGGTVTINCQASQSISSYLYWYQQKPGQPPKLLIYDASKLASGVPSRFKGSGSGTQFTLTITGVECADAATYYCQQGYSHINVDNIFGGGTEVVVK
ADCC (% cytotoxicity of Ramos cell at 1 µg/ml) [2]: 29%

CD83 expression on human monocyte-derived DC (DC maturation assay) [1]: > 50%
B8: R-33 rabbit anti-CD40 antibody (antibody, V domains shown)
VH: B7 VH
VL: B7 VL

CD83 expression on human monocyte-derived DC (DC maturation assay) [1]: > 50%
B9: R-18 rabbit anti-CD40 antibody (antibody, V domains shown)
VH: QSLEESGGDLVKPGASLTLTCTASGIDFSSYYYMCWVRQAPGKGLEWIGCIYAGSGSTYYASWAKGRFTISKTSSTTVTLQMTSLTAADTATYFCARSGYNDGSYYNLWGPGTLVTVSS
VL: DIVMTQTPSSVEAAVGGTVTIKCQASQSIYTWLAWYQQKPGQPPKLLIYKASTLASGVPSRFKGSGSGTDYTLTISDLECDDAATYYCQRYSWNGSYGVSFGGGTEVVVR

CD83 expression on human monocyte-derived DC (DC maturation assay) [1]: > 50%
B11: R-16 rabbit anti-CD40 antibody (antibody, V domains shown)
VH: QSLEESGGGLVKPGGTLTLTCKASGFSLNYYWPCWVRQAPGKGLEWVACLNGGDSDTTVYARWAKGRFTISKASSTTVTLQMTSLTAADTATYFCARYIIPGYHFNLWGPGTLVTVSS
VL: AYDMTQTPASVSAAVGDTVTIKCQASQSISSYLYWYQQKPGQPPKLLIYQASKLASGVPSRFKGSGSGTEYTLTISDLECADVATYYCQQGYSHINVDNIFGGGFQVVVK

CD83 expression on human monocyte-derived DC (DC maturation assay) [1]: > 50%
B12: R-36 rabbit anti-CD40 antibody (antibody, V domains shown)
VH: QQQLVESGGGLVKPGASLTLTCKASGFSFSSTYWICWVRQAPGKGLEWIGCINSDDSGTNVYANWAKGRFTISKASSTTVTLQMTSLTAADTATYFCARYPIPGYHFNLWGPGTLVTVSS
VL: AYDMTQTPASVEVAVGGTVTIKCQASQNIYGYLFWYQQKPGQPPNLLIAEASKLPSGVPSRFKGSGSGTEYSLTISGVECADAATYYCQQSYSHINVDNIFGGGTEVVVK

Pro-apoptosis activity (IC50) [2]: 0.57 µg/mL
B16: cR-3 chimeric anti-CD40 antibody (antibody, V domains shown)
VH: QSLEESGGDLVKPGASLTLTCTASGFSFSDSFWIAWVRQAPGKGLEWIGCIHALSSGSTYYANWARGRFTISKTSSTTVTLQMNSLTAADTATYFCARSYAGYADYNVATGLNLWGPGTLVTVSS
VL: DVVMTQTPSSASAAVGGTVTTKCQASQSIGSYLAWYQQKPGQRPKLLIYAASNLASGVPSRFKGSRSGTEYTLTISGVQREDAATYYCLGSFTGSDTTFGGGTELEIL
ADCC (% cytotoxicity of Ramos cell at 1 µg/ml) [2]: 30%

The remaining lines, values behind:

B1: 19-21 rabbit anti-CD40 antibody (antibody, V domains shown)
VH: B2 VH
VL: B2 VL
CD83 expression on human monocyte-derived DC (DC maturation assay) [1]: > 50%

B3: R-6 rabbit anti-CD40 antibody (antibody, V domains shown)
VH: GGSLTLTGTASGFSFSSSYSMCWVRQAPGKGLEWIGCIDTGRGYTYHASGAKGRFTFSKTSSTTVTLQMTSLTAADTATYFCARSSYVRYDNRNYGFNLWGPGTLVTVSS
VL: DIVMTQTPASVEAAVGGTITINCQASESISSWLSWYQQKPGQRPKLLIYYTSNLASGVPSRFKGSGAGTDFTLTISDLECADAATYYCQSNYGSSSSTYYGFGGGTEVVVK
CD83 expression on human monocyte-derived DC (DC maturation assay) [1]: > 50%

B6: R-9 rabbit anti-CD40 antibody (antibody, V domains shown)
VH: QSLEESGGDLVKPGASLTLTCTASRFSFSSTYMCWVRQAPGKGLEWIACTYTGSSGGTYYASWAKGRFTISQTSSTTVTLQLTGLTPADTATYFCARPDVGFDFAINFWGPGTLVTVSS
VL: B5 VL with P59S, E70Q, G94T, I99F
CD83 expression on human monocyte-derived DC (DC maturation assay) [1]: > 50%

B10: APX005 humanized anti-CD40 antibody (antibody, IgG1, V domains shown)
VH: QVQLVESGGGVVQPGRSLRLSCAASGFSFSSTYVCWVRQAPGKGLEWIACIYTGDGTNYSASWAKGRFTISKDSSKNTVYLQMNSLRAEDTAVYFCARPDITYGFAINFWGPGTLVTVSS
VL: DIQMTQSPSSLSASVGDRVTIKCQASQSISSRLAWYQQKPGKPPKLLIYRASTLASGVPSRFSGSGSGTDFTLTISSLQPEDVATYYCQCTGYGISWPIGGGTKVEIK
notes: also called humanized R-8
EC50 (read off the curve) [3]: ~0.05 µg/mL
binding result [4]: no binding (tested: 10000 ng/ml)
Kd [5]: 0.96 nM
EC50 (read off the curve) [6]: ~0.05 µg/mL
binding result [7]: no binding

B13: 19-59 rabbit anti-CD40 antibody (antibody, V domains shown)
VH: QSVEESGGRLVTPGTPLTLTCTVSGFSLSDYVMRWVRQAPGKGLEWIGVISSAGNTYYATWAKDRFTISKTSTTVDLRIASPTTEDTATYFCARIWRPDDPTNSDIWGPGTLVTVSS
VL: DVVMTQTPSSTSAAVGGTVTIKCQASESISSSLAWYQQKPGQPPKLLIYYASDLASGVPSRFSGSRSGTEYTLTISGVQREDAATYYCLGGYATAAYRTAFGGGTELEIL
CD83 expression on human monocyte-derived DC (DC maturation assay) [1]: > 50%

B14: 19-45 rabbit anti-CD40 antibody (antibody, V domains shown)
VH: QSVEESGGRLVTPGTPLTLNCTVSGFSLSSYDMNWVRQAPGKGLEWIGVIWNNGEIFYASWAKGRFTISKTSTTVDLKITSPSTEDTATYFCAGDADGGVVSYFHVWGPGTLVTVSS
VL: AYDMTQTPASVEVAVGGTVTIKCQASQTIYTYLAWYLQKPGQPPKLLIYEASKLASGVSSRFEGSGSGTQFTLTISGVQCDDAATYYCQQGYNSRHVDNVFGGGTEVVVK
CD83 expression on human monocyte-derived DC (DC maturation assay) [1]: > 50%

B15: R-3 rabbit anti-CD40 antibody (antibody, V domains shown)
VH: B16 VH
VL: B16 VL
CD83 expression on human monocyte-derived DC (DC maturation assay) [1]: > 50%
